# T1: human Nectin-1 with His tag (ACROBiosystems, catalog number PV1-H5223) (human, UniProt Q15223 31-355, biotinylated in Example 3 (sites not given))
# T1 construct: Bought protein; also called biotinylated human Nectin-1
# T1 sequence: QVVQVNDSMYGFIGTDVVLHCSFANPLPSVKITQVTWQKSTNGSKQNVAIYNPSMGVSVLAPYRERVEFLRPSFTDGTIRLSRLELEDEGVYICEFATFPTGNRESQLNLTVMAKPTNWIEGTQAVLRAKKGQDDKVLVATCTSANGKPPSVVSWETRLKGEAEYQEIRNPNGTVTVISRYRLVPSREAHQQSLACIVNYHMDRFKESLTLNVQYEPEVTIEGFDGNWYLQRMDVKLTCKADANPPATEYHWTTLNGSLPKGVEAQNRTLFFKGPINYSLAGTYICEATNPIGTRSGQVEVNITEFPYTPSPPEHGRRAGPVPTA
# T2: human Nectin 2 (ACROBiosystems, Catalog no: PV2-H52E2) (human, UniProt Q92692 32-360)
# T2 construct: extracellular domain
# T2 sequence (looked up): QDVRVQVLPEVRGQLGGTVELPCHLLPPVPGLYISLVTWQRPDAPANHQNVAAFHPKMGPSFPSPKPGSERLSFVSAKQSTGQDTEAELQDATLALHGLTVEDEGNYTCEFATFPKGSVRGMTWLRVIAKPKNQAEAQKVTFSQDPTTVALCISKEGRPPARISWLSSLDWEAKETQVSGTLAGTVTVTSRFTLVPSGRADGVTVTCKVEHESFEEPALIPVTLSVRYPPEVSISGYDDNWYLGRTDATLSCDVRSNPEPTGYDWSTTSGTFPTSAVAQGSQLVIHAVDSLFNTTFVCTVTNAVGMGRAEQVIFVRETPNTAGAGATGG
# T3: full-length human Nectin-4 on cells (human, UniProt Q96NY8 32-510)
# T3 construct: the cell is named under assay; also called CHO-Nectin-4 cells; Nectin-4-CHO
# T3 sequence: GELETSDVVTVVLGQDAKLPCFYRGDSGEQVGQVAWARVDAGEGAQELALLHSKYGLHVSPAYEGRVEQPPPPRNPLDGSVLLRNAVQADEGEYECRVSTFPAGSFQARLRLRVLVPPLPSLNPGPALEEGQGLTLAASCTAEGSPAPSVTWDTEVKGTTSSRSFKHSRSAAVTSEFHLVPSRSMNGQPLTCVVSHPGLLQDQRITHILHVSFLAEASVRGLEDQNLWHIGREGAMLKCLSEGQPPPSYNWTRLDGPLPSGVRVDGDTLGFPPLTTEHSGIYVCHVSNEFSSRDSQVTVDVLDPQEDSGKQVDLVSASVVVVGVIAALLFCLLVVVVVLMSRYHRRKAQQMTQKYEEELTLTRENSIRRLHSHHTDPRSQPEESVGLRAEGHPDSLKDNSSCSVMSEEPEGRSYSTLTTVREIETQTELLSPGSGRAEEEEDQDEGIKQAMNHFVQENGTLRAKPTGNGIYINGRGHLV
# T4: human recombinant Nectin-4 protein (extracellular domain) (human, UniProt Q96NY8 32-349)
# T4 construct: also called recombinant Nectin-4 (extracellular domain); human Nectin-4 recombinant protein
# T4 sequence: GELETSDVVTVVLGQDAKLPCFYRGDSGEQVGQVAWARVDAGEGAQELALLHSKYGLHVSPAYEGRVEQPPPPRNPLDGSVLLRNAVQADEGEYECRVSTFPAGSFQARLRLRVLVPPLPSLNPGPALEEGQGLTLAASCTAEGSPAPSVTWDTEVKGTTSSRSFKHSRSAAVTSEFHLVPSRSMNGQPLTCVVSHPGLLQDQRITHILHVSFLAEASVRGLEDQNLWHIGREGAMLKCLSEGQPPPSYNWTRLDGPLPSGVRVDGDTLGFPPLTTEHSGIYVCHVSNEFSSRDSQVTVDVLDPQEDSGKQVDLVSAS
# Tests used:
# [1] = biological target: T1, human Nectin-1 with His tag …; test: ELISA or Gator binding assay
# [2] = biological target: T2, human Nectin 2 (ACROBiosystems, Catalog …); test: ELISA or Gator binding assay
# [3] = biological target: T3, full-length human Nectin-4 on cells; test: flow cytometry, CHO-Nectin-4 cells
# Method: (§1) The binding specificity of the disclosed anti-Nectin-4 antibodies was also assessed by FACS. Briefly, CHO-Nectin-4 cells (vs. parental CHO cells) or endogenous cell lines expressing Nectin-4 (T-47D) were incubated with dilutions of purified recombinant antibodies. Cells were washed, and specific antibody binding was detected with Alexa 647 labeled goat anti-mouse IgG antibody. Flow cytometric analysis was performed on a flow cytometry instrument (Intellicyte, IQue plus, Sartorius).
# (§2) N4_mAb 1 to N4_mAb 8 antibodies bind to CHO-Nectin-4 cells and SKBR3 cells by FACS.
# [4] = biological target: T4, human recombinant Nectin-4 protein …; test: ELISA, recombinant human Nectin-4 coated on plate
# Method: The binding specificity of the disclosed anti-Nectin-4 antibodies was assessed by ELISA. Briefly, human recombinant Nectin-4 protein was directly coated to ELISA plates. Purified antibodies were then added to the plates followed by detection by goat-anti-mouse IgG-HRP. After addition of ABTS substrate, ELISA plates were read using an ELISA plate reader (Bioteck). The controls depicted in FIG. 2: PC1 refers to a reference antibody (known to be a Nectin-4 specific recombinant antibody, made by Novarock Biotherapeutics, lot no: 03042020KD); the negative control is a human IgG1 (Dendritics, catalog no: DDXCH01P-100, lot no: DDXCH01-028).
# The ELISA binding EC50 values of the eight anti-Nectin-4 antibodies, N4_mAb 1 to N4_mAb 8 and the positive control antibody were listed in Table 3 below.
# [5] = biological target: T3, full-length human Nectin-4 on cells; test: flow cytometry, SKBR3 cells (endogenous Nectin-4)
# Method: as §1, §2
# [6] = biological target: T3, full-length human Nectin-4 on cells; test: flow cytometry competition on CHO-Nectin-4 cells; competitor biotinylated human TIGIT
# Method: The ability of disclosed Nectin4-specific antibodies to block TIGIT binding to CHO-Nectin-4 cells was assessed by FACS. Briefly, CHO-Nectin-4 cells were incubated with dilutions of the disclosed purified recombinant antibodies. Then, biotinylated human TIGIT protein (SinoBiologic, catalog: 10917-H08H-B, lot: LC13AP0902) was added to the plate. After 30-minute incubation, cells were washed, followed by adding Streptavidin Alexa 647 (1:1000) to the samples. After a 30 minute incubation, the samples were analyzed on a flow cytometry instrument (Intellicyte, IQue plus, Sartorius) for TIGIT blocking activity. The positive control antibody used in this blocking assay is PC2, a Nectin-4 antibody with known blocking activity.
Binder,binding result [1],binding result [2],EC50 [3] [nM],EC50 [4] [nM],EC50 [5] [nM],EC50 [6] [nM]
"N4_mAb 5 (antibody, human IgG1, V domains shown, Tested as chimera (human IgG1/kappa constants); not shown: human IgG1 constant region (Uniprot P01857); human Kappa light chain constant region (UniProt P01834)) VH: EVQLQQSGPDLVKPGASVKISCKASGYSFTGHYMHWVKQSHGKSLEWIGRVNPNNGGSSYNQKFKDKAILTVDKSSTTAYMELRSLTSEDSAVYYCARDPLGGSYGFAYWGQGTLVTVSA VL: DIVLTQSPASLAVSLGQRATISCRASQSVTTSSYSYMHWYQQKPGQPPKLLIKYASNLESGVPARFSGSGSGTDFTLNIHPVEEEDTATYYCQHSWEIPYTFGGGTKLEMK",no binding,no binding,0.38,0.13,0.52,3.11
"N4_mAb 4 (antibody, human IgG1, V domains shown, Tested as chimera (human IgG1/kappa constants); not shown: human IgG1 constant region (Uniprot P01857); human Kappa light chain constant region (UniProt P01834)) VH: DVQLQESGPDLVKPSQSLSLTCTVTGYSITSAYNWHWIRQFPGNKLEWMGYIHYSGRTNYNPSLKSRISITRDTSKNQFFLQLNSLTTEDTATYYCARWITTATGWYLDVWGAGTTVTVSS VL: not shown",no binding,no binding,0.57,1.12,1.8,
"N4_mAb 2 (antibody, human IgG1, V domains shown, Tested as chimera (human IgG1/kappa constants); not shown: human IgG1 constant region (Uniprot P01857); human Kappa light chain constant region (UniProt P01834)) VH: QVQLKQSGPNLVQPSQSLSITCTVSGFSLTTYGAHWVRQSPGKGLEWLGVIWRGGSTDYNAAFMSRLSITKDNSKSQVFFKMNSLQADDTAIYYCAKIGYDGYAMDNWGQGTSVTVSS VL: DFQVTQSPASLSASVGETVTITCRTSENIHNYLAWYQQKQGKSPQLLVYNAKTLADGVPSRFSGSGSGTQYSLKINSLQPEDFGTYYCQHFWSSPWTFGGGTKLEIK",no binding,no binding,0.64,0.12,1.8,3.04
"N4_mAb 1 (antibody, human IgG1, V domains shown, Tested as chimera (murine variable regions, human IgG1/kappa constants); not shown: human IgG1 constant region (Uniprot P01857); human Kappa light chain constant region (UniProt P01834)) VH: QVQLKQSGPGLVQPSQSLSITCTVSGFSLTNYGVNWVRQPPGKGLEWLGVIWSGGSTDYNAAFISRLSISKDISKSQVFFKMNSLQADDTAKYYCAREGYDGYAMDYWGQGTSVTVSS VL: DIQMTQSPASLSVSVGETVTITCRASENIFSSLAWYQQKQGKSPQLLVYGATNLADGVPSRFSGSGSGTQYSLKINSLQSEDFGTYWCQHFWGNPWTFGGGTKLEIK",no binding,no binding,0.29,0.14,0.24,0.91
"N4_mAb 3 (antibody, human IgG1, V domains shown, Tested as chimera (human IgG1/kappa constants); not shown: human IgG1 constant region (Uniprot P01857); human Kappa light chain constant region (UniProt P01834)) VH: EVQLQQSGAELVKPGASVKLSCTVSGFNIKDTYMHWVKQRPEQGLEWIGRIDPANGNTKYDPKFQGKATIIADKASNTAYLQLSSLTSEDAAVYYCAHYYGSSYFAMDCWGQGTSVTVSS VL: DIVMTQSHKFMSTSVGDRVSITCKASQDVSTAVAWYQQKPGQSPKLLIYWASTRHTGVPDRFTGSGSGTDYTLTISSVQTEDLALYYCQQHYSTPLTFGAGTKLELK",no binding,no binding,0.75,1.51,45,0.94

# Continued, values first:
binding result [1],binding result [2],EC50 [3] [nM],EC50 [4] [nM],EC50 [5] [nM],EC50 [6] [nM],Binder
no binding,no binding,0.12,0.03,0.04,0.31,"N4_mAb 6 (antibody, human IgG1, V domains shown, Tested as chimera (murine variable regions, human IgG1/kappa constants); not shown: human IgG1 constant region (Uniprot P01857); human Kappa light chain constant region (UniProt P01834)) VH: QVQLQQSGPELVKPGASVRISCKASGYTFTTYYIHWVKQRPGQGLEWIGWIYPGNVNTKYTENFKDKATLTADKSSSTAYMQLSSLTSEDSAVYFCARGLYYFDFWGQGTTLTVSS VL: SIVMTQTPKFLLVSAGDRVTITCKASQSVNNDVAWYQQKPGQSPKLLIYYASNRDTGVPDRFTGSGFGTDFTFTISSVQAEDLAVYFCQQDYSSPYTFGGGTKLEIK"
no binding,no binding,0.23,0.14,0.05,1.37,"N4_mAb 8 (antibody, human IgG1, V domains shown, Tested as chimera (murine variable regions, human IgG1/kappa constants); not shown: human IgG1 constant region (Uniprot P01857); human Kappa light chain constant region (UniProt P01834)) VH: QVQLQQSGPVLVKPGASVRISCKASGYTFTSYYIHWVKQRPGQGLEWIGWIYPGNVNTKYNENFRDKATLTADKSSSTSYMQLSSLTSEDSAVYFCARGIYYFDYWGQGTTLTVSS VL: IIVMTQTPKFLLVSAGDRVTITCKASQSVNNDVAWYQEKPGQSPKLLIYYASNRDTGVPDRFTGSGYGTDFTFTISTVQAEDLAVYFCHQDYSSPFTFGSGTKLEIK"
no binding,no binding,0.18,0.04,0.05,0.75,"N4_mAb 7 (antibody, human IgG1, V domains shown, Tested as chimera (murine variable regions, human IgG1/kappa constants); not shown: human IgG1 constant region (Uniprot P01857); human Kappa light chain constant region (UniProt P01834)) VH: QVQLQQSGPELVKPGASVKMSCKASGYTFTTYYIHWVKQRPGQGLEWIGWIYPGNAGIKSNEKFKGKTTLTADKSSSTAYMLLSSLTSEDSAIYFCARGVYFFDYWGQGTTLTVSS VL: SIVMTQTPKFLLVSAGDRVTITCKASQSVNNDVSWFQQKPGQSPKLLIYYASNRYTGVPDRFSGSGYGTDFTFTITTVQAEDLAVYFCQQDYSSPYTFGGGTKLEIK"
